test system: Escherichia coli TOP10; test: shrunken log2 fold change of peptide-encoding DNA abundance (4.5 h post-induction vs induction); higher = less antimicrobial activity (less host growth inhibition); conditions: time post-induction: 4.5 h; library: site-saturation at positions 5, 18, 19, 20
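Further: peptides expressed intracellularly from a pBAD plasmid library in pooled LB shake-flask culture, induced with 0.3% L-arabinose, DNA abundance read by NGS, three biological replicates, DESeq2 with apeglm shrinkage.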

Row | Sequence | shrunken log2 fold change
1 | RRIRVRPPRLPRPRPRPCDTPRP | 0.0884
2 | RRIRVRPPRLPRPRPRPCDWPRP | 0.192
3 | RRIRVRPPRLPRPRPRPCEIPRP | -0.0392
4 | RRIRVRPPRLPRPRPRPCFAPRP | 0.116
5 | RRIRVRPPRLPRPRPRPCFNPRP | -0.421
6 | RRIRVRPPRLPRPRPRPCFWPRP | -0.0218
7 | RRIRVRPPRLPRPRPRPCHMPRP | -0.19
8 | RRIRVRPPRLPRPRPRPCKEPRP | -0.335
9 | RRIRVRPPRLPRPRPRPCKGPRP | -0.117
10 | RRIRVRPPRLPRPRPRPCKLPRP | -0.453
11 | RRIRVRPPRLPRPRPRPCLDPRP | -0.135
12 | RRIRVRPPRLPRPRPRPCLLPRP | -0.072
13 | RRIRVRPPRLPRPRPRPCMKPRP | -0.104
14 | RRIRVRPPRLPRPRPRPCNCPRP | -0.0105
15 | RRIRVRPPRLPRPRPRPCNGPRP | 0.00489
16 | RRIRVRPPRLPRPRPRPCNHPRP | -0.588
17 | RRIRVRPPRLPRPRPRPCPFPRP | -0.314
18 | RRIRVRPPRLPRPRPRPCPIPRP | -0.296
19 | RRIRVRPPRLPRPRPRPCQPPRP | -0.236
20 | RRIRVRPPRLPRPRPRPCQRPRP | 0.0972
21 | RRIRVRPPRLPRPRPRPCRQPRP | -0.0134
22 | RRIRVRPPRLPRPRPRPCSHPRP | -0.246
23 | RRIRVRPPRLPRPRPRPCSLPRP | -0.201
24 | RRIRVRPPRLPRPRPRPCSTPRP | -0.127
25 | RRIRVRPPRLPRPRPRPCTSPRP | -0.145

Row | Sequence | shrunken log2 fold change
26 | RRIRVRPPRLPRPRPRPCTYPRP | -0.0569
27 | RRIRVRPPRLPRPRPRPCVQPRP | 0.0444
28 | RRIRVRPPRLPRPRPRPCWKPRP | -0.00912
29 | RRIRVRPPRLPRPRPRPCYFPRP | -0.594
30 | RRIRVRPPRLPRPRPRPCYQPRP | -0.142
31 | RRIRVRPPRLPRPRPRPCYSPRP | 0.00378
32 | RRIRVRPPRLPRPRPRPDAHPRP | 0.21
33 | RRIRVRPPRLPRPRPRPDAKPRP | 0.0516
34 | RRIRVRPPRLPRPRPRPDAVPRP | 0.141
35 | RRIRVRPPRLPRPRPRPDAWPRP | 0.0757
36 | RRIRVRPPRLPRPRPRPDERPRP | 0.139
37 | RRIRVRPPRLPRPRPRPDFSPRP | -0.373
38 | RRIRVRPPRLPRPRPRPDGTPRP | -0.161
39 | RRIRVRPPRLPRPRPRPDIFPRP | -0.171
40 | RRIRVRPPRLPRPRPRPDIKPRP | -0.912
41 | RRIRVRPPRLPRPRPRPDIPPRP | -0.263
42 | RRIRVRPPRLPRPRPRPDKHPRP | -0.108
43 | RRIRVRPPRLPRPRPRPDKTPRP | -0.0309
44 | RRIRVRPPRLPRPRPRPDMDPRP | -0.154
45 | RRIRVRPPRLPRPRPRPDNDPRP | -0.232
46 | RRIRVRPPRLPRPRPRPDNVPRP | 0.171
47 | RRIRVRPPRLPRPRPRPDPAPRP | 0.142
48 | RRIRVRPPRLPRPRPRPDPCPRP | -0.0596
49 | RRIRVRPPRLPRPRPRPDPSPRP | 0.226
50 | RRIRVRPPRLPRPRPRPDQDPRP | 0.0425

Row | Sequence | shrunken log2 fold change
51 | RRIRVRPPRLPRPRPRPDQTPRP | -0.002
52 | RRIRVRPPRLPRPRPRPDSTPRP | -0.0391
53 | RRIRVRPPRLPRPRPRPDVAPRP | -0.0974
54 | RRIRVRPPRLPRPRPRPDVCPRP | 0.0951
55 | RRIRVRPPRLPRPRPRPDVPPRP | -0.0976
56 | RRIRVRPPRLPRPRPRPEAMPRP | -0.0277
57 | RRIRVRPPRLPRPRPRPECVPRP | 0.399
58 | RRIRVRPPRLPRPRPRPEDFPRP | 0.0252
59 | RRIRVRPPRLPRPRPRPEDMPRP | -0.115
60 | RRIRVRPPRLPRPRPRPEETPRP | 0.00893
61 | RRIRVRPPRLPRPRPRPEFTPRP | -0.0269
62 | RRIRVRPPRLPRPRPRPEGKPRP | 0.217
63 | RRIRVRPPRLPRPRPRPEGVPRP | 0.907
64 | RRIRVRPPRLPRPRPRPEHQPRP | -0.477
65 | RRIRVRPPRLPRPRPRPEIEPRP | 0.173
66 | RRIRVRPPRLPRPRPRPEIVPRP | -0.0567
67 | RRIRVRPPRLPRPRPRPEKNPRP | 0.0805
68 | RRIRVRPPRLPRPRPRPELAPRP | 0.659
69 | RRIRVRPPRLPRPRPRPELSPRP | 0.119
70 | RRIRVRPPRLPRPRPRPENHPRP | -0.187
71 | RRIRVRPPRLPRPRPRPENSPRP | -0.522
72 | RRIRVRPPRLPRPRPRPERSPRP | 0.276
73 | RRIRVRPPRLPRPRPRPESEPRP | 0.0921
74 | RRIRVRPPRLPRPRPRPESPPRP | 0.232
75 | RRIRVRPPRLPRPRPRPETAPRP | 0.406

Row | Sequence | shrunken log2 fold change
76 | RRIRVRPPRLPRPRPRPETSPRP | -0.369
77 | RRIRVRPPRLPRPRPRPEVQPRP | 0.148
78 | RRIRVRPPRLPRPRPRPEWMPRP | 0.0845
79 | RRIRVRPPRLPRPRPRPEYKPRP | -0.501
80 | RRIRVRPPRLPRPRPRPFAIPRP | -0.765
81 | RRIRVRPPRLPRPRPRPFAMPRP | -0.252
82 | RRIRVRPPRLPRPRPRPFCAPRP | 0.00539
83 | RRIRVRPPRLPRPRPRPFCNPRP | 0.0823
84 | RRIRVRPPRLPRPRPRPFEWPRP | -0.102
85 | RRIRVRPPRLPRPRPRPFFIPRP | -0.265
86 | RRIRVRPPRLPRPRPRPFGGPRP | -0.216
87 | RRIRVRPPRLPRPRPRPFHLPRP | 0.0337
88 | RRIRVRPPRLPRPRPRPFIWPRP | -0.0481
89 | RRIRVRPPRLPRPRPRPFLVPRP | -0.527
90 | RRIRVRPPRLPRPRPRPFMYPRP | -0.642
91 | RRIRVRPPRLPRPRPRPFPVPRP | -0.0106
92 | RRIRVRPPRLPRPRPRPFQQPRP | -0.014
93 | RRIRVRPPRLPRPRPRPFQWPRP | -0.126
94 | RRIRVRPPRLPRPRPRPFRFPRP | 0.0201
95 | RRIRVRPPRLPRPRPRPFRRPRP | -0.101
96 | RRIRVRPPRLPRPRPRPFSGPRP | -0.337
97 | RRIRVRPPRLPRPRPRPFVEPRP | -0.361
98 | RRIRVRPPRLPRPRPRPFVHPRP | -0.17
99 | RRIRVRPPRLPRPRPRPFVQPRP | -0.0696
100 | RRIRVRPPRLPRPRPRPFYGPRP | -0.127

Row | Sequence | shrunken log2 fold change
101 | RRIRVRPPRLPRPRPRPFYHPRP | -0.502
102 | RRIRVRPPRLPRPRPRPGFQPRP | 0.302
103 | RRIRVRPPRLPRPRPRPGFVPRP | 0.0922
104 | RRIRVRPPRLPRPRPRPGGEPRP | 0.386
105 | RRIRVRPPRLPRPRPRPGISPRP | -0.49
106 | RRIRVRPPRLPRPRPRPGIWPRP | 0.339
107 | RRIRVRPPRLPRPRPRPGKEPRP | -0.0126
108 | RRIRVRPPRLPRPRPRPGKYPRP | -0.493
109 | RRIRVRPPRLPRPRPRPGLNPRP | -0.00582
110 | RRIRVRPPRLPRPRPRPGMAPRP | 0.183
111 | RRIRVRPPRLPRPRPRPGMIPRP | -0.2
112 | RRIRVRPPRLPRPRPRPGMMPRP | 0.135
113 | RRIRVRPPRLPRPRPRPGNAPRP | 0.133
114 | RRIRVRPPRLPRPRPRPGNGPRP | 0.023
115 | RRIRVRPPRLPRPRPRPGNMPRP | 0.151
116 | RRIRVRPPRLPRPRPRPGPCPRP | -0.128
117 | RRIRVRPPRLPRPRPRPGQPPRP | 0.0218
118 | RRIRVRPPRLPRPRPRPGRPPRP | 0.63
119 | RRIRVRPPRLPRPRPRPGRVPRP | 0.405
120 | RRIRVRPPRLPRPRPRPGSDPRP | -0.00601
121 | RRIRVRPPRLPRPRPRPGTAPRP | 0.136
122 | RRIRVRPPRLPRPRPRPGTGPRP | 0.148
123 | RRIRVRPPRLPRPRPRPGVIPRP | 0.0193
124 | RRIRVRPPRLPRPRPRPGVKPRP | 0.303
125 | RRIRVRPPRLPRPRPRPGVLPRP | 0.0138

Row | Sequence | shrunken log2 fold change
126 | RRIRVRPPRLPRPRPRPGYIPRP | -0.608
127 | RRIRVRPPRLPRPRPRPHANPRP | 0.25
128 | RRIRVRPPRLPRPRPRPHCLPRP | -1.63
129 | RRIRVRPPRLPRPRPRPHDCPRP | -0.162
130 | RRIRVRPPRLPRPRPRPHDSPRP | 0.0311
131 | RRIRVRPPRLPRPRPRPHFFPRP | -0.0497
132 | RRIRVRPPRLPRPRPRPHFIPRP | -0.304
133 | RRIRVRPPRLPRPRPRPHFQPRP | -0.154
134 | RRIRVRPPRLPRPRPRPHGQPRP | -0.0326
135 | RRIRVRPPRLPRPRPRPHGYPRP | -0.298
136 | RRIRVRPPRLPRPRPRPHIEPRP | -0.763
137 | RRIRVRPPRLPRPRPRPHIHPRP | -0.545
138 | RRIRVRPPRLPRPRPRPHIIPRP | -0.204
139 | RRIRVRPPRLPRPRPRPHIMPRP | -0.339
140 | RRIRVRPPRLPRPRPRPHIWPRP | -0.244
141 | RRIRVRPPRLPRPRPRPHKAPRP | -0.0103
142 | RRIRVRPPRLPRPRPRPHKWPRP | -0.0581
143 | RRIRVRPPRLPRPRPRPHMMPRP | -0.659
144 | RRIRVRPPRLPRPRPRPHMRPRP | -0.0474
145 | RRIRVRPPRLPRPRPRPHNIPRP | -0.392
146 | RRIRVRPPRLPRPRPRPHNTPRP | -0.353
147 | RRIRVRPPRLPRPRPRPHRLPRP | -0.0912
148 | RRIRVRPPRLPRPRPRPHRNPRP | -0.531
149 | RRIRVRPPRLPRPRPRPHSFPRP | -0.155
150 | RRIRVRPPRLPRPRPRPHSLPRP | -0.232

From the supplement of paper PMC9112550, “Optimization of the antimicrobial peptide Bac7 by deep mutational scanning” (BMC Biology, 2022)
